Measurements as given in patent US20030198990A1 (UNIVERSITY OF ROCHESTER, published 2003).

B7: Rb fragment (aa 371-928) ligated to the DBD of GAL4 (other)
chain: MKLLSSIEQACDICRLKKLKCSKEKPKCAKCLKNNWECRYSPKTKRSPLTRAHLTEVESRLERLEQLFLLIFPREDLDMILKMDSLQDIKALLTGLFVQDNVNKDAVTDRLASVETDMPLTLRQHRISATSSSEESSNKGQRQLTVSPHTPVRTVMNTIQQLMMILNSASDQPSENLISYFNNCTVNPKESILKRVKDIGYIFKEKFAKAVGQGCVEIGSQRYKLGVRLYYRVMESMLKSEEERLSIQNFSKLLNDNIFHMSLLACALEVVMATYSRSTSQNLDSGTDLSFPWILNVLNLKAFDFYKVIESFIKAEGNLTREMIKHLERCEHRIMESLAWLSDSPLFDLIKQSKDREGPTDHLESACPLNLPLQNNHTAADMYLSPVRSPKKKGSTTRVNSTANAETQATSAFQTQKPLKSTSLSLFYKKVYRLAYLRLNTLCERLLSEHPELEHIIWTLFQHTLQNEYELMRDRHLDQIMMCSMYGICKVKNIDLKFKIIVTAYKDLPHAVQETFKRVLIKEEEYDSIIVFYNSVFMQRLKTNILQYASTRPPTLSPIPHIPRSPYKFPSSPLRIPGGNIYISPLKSPYKISEGLPTPTKMTPRSRILVSIGESFGTSEKFQKINQMVCNSDRVLKRSAEGSNPPKPLKKLRFDIEGSDEADGSKHLPGESKFQQKLAEMTSTRTRMQKQKMNDSMDTSNKEEK

Columns and labels:
[1] = biological target: T1, human androgen receptor (AR), full length (human, UniProt P10275 1-920); experiment: assay not given
T1 construct: mature; Full-length AR as used in the co-immunoprecipitations; The ARA54 co-IP used anti-His.tag antibodies; also called wtAR; wild type AR
T1 sequence (looked up): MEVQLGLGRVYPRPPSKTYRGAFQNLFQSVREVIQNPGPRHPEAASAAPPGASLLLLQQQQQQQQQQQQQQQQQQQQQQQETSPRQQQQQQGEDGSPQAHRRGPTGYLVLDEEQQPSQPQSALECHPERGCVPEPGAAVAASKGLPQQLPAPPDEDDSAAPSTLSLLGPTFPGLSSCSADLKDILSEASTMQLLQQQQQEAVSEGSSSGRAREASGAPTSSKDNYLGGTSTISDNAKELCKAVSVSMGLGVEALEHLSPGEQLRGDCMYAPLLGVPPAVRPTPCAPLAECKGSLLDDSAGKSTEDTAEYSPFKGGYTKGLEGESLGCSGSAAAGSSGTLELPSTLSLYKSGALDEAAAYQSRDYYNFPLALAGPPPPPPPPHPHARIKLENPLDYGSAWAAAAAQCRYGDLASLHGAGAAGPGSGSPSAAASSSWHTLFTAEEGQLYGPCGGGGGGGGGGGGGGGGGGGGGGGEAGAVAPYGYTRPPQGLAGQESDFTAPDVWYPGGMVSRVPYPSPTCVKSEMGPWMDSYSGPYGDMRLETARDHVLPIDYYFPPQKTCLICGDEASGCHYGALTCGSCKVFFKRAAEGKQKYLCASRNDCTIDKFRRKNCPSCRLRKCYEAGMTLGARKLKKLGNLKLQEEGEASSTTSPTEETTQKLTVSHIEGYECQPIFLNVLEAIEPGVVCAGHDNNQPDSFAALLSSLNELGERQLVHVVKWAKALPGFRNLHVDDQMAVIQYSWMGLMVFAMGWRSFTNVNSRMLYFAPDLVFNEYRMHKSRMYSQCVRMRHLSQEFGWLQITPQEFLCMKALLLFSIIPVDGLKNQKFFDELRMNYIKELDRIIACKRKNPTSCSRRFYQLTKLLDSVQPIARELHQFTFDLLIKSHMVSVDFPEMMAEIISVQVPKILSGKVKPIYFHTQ

[2] = biological target: B7; experiment: mammalian two-hybrid, CAT reporter, DU145 cells
[3] = biological target: T2, GAL0 empty vector (GAL4 DBD alone) (UniProt P04386 1-147); experiment: mammalian two-hybrid, CAT reporter, DU145 cells
T2 construct: range 1-147; Control of the mammalian two-hybrid assay; also called pGAL0

[4] = biological target: T3, near full-length AR (nAR, aa 36-918) ligated to transcriptional activator VP16 (human, UniProt P10275 36-918); experiment: mammalian two-hybrid, CAT reporter, DU145 cells
T3 construct: range 36-918; Mammalian two-hybrid construct, DU145 cells
T3 sequence: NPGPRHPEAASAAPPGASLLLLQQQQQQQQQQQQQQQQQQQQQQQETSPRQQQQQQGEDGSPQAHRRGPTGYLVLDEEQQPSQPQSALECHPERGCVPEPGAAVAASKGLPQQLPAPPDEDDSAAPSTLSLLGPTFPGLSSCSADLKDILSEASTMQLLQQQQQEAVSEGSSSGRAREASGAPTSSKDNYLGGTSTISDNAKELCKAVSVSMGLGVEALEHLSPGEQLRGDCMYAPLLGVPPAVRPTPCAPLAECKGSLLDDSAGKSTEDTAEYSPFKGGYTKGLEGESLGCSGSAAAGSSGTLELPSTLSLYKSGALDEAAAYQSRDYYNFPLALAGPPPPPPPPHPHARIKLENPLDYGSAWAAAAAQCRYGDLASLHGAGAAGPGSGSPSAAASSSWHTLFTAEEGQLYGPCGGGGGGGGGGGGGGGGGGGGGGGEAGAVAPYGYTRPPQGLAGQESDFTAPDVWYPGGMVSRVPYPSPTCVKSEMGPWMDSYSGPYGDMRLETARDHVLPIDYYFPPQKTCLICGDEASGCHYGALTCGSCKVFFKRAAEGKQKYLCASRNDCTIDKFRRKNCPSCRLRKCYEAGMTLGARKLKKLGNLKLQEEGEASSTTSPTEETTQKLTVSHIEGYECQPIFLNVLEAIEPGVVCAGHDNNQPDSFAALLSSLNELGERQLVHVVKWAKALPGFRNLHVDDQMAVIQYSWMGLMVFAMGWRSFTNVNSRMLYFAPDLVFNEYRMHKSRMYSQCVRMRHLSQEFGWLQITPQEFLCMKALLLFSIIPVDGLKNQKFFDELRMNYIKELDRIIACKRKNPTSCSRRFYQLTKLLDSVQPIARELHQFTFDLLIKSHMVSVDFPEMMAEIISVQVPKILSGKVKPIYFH

[5] = biological target: T1, human androgen receptor (AR), full …; experiment: cell-based or functional assay
[6] = biological target: T4, GAL0AR: hormone binding domain of wtAR fused to the GAL4 DBD (human, UniProt P04386 1-147; P10275 625-920); experiment: mammalian two-hybrid, CAT reporter, DU145 cells
T4 construct: range 1-147;domain: hinge and LBD; also called pGAL0-AR (wild-type); GAL4DBD fused to E region of human AR

[7] = biological target: T3, near full-length AR (nAR, aa 36-918) …; experiment: cell-based or functional assay

B1: C-terminal domain of ARA55 (amino acids 251-444) (other)
chain: EKDGAPFCPECYFERFSPRCGFCNQPIRHKMVTALGTHWHPEHFCCVSCGEPFGDEGFHEREGRPYCRRDFLQLFAPRCQGCQGPILDNYISALSLLWHPDCFVCRECFAPFSGGSFFEHEGRPLCENHFHARRGSLCPTCGLPVTGRCVSALGRRFHPDHFACTFCLRPLTKGSFQERAGKPYCQPCFLKLFG
notes: also called ARA55251-444; C-terminus of ARA55
Question: Does B1 bind [1]?
Answer: Result: binds

B2: AR-LBD (aa 590-918) ligated to transcriptional activator VP16 (receptor)
chain: GKQKYLCASRNDCTIDKFRRKNCPSCRLRKCYEAGMTLGARKLKKLGNLKLQEEGEASSTTSPTEETTQKLTVSHIEGYECQPIFLNVLEAIEPGVVCAGHDNNQPDSFAALLSSLNELGERQLVHVVKWAKALPGFRNLHVDDQMAVIQYSWMGLMVFAMGWRSFTNVNSRMLYFAPDLVFNEYRMHKSRMYSQCVRMRHLSQEFGWLQITPQEFLCMKALLLFSIIPVDGLKNQKFFDELRMNYIKELDRIIACKRKNPTSCSRRFYQLTKLLDSVQPIARELHQFTFDLLIKSHMVSVDFPEMMAEIISVQVPKILSGKVKPIYFH
notes: range 590-918; Mammalian two-hybrid construct, DU145 cells; also called pCMX-VP16-AR
Question: Does B2 bind [2]?
Answer: Result: no binding

B3: VP16-ARA55: full-length ARA55 fused to the activation domain of VP16 (other)
chain: MPRSGAPKERPAEPLTPPPSYGHQPTGQSGESSGASGDKDHLYSTVCKPRSPKPAAPAAPPFSSSSGVLGTGLCELDRLLQELNATQFNITDEIMSQFPSSKVASGEQKEDQSEDKKRPSLPSSPSPGLPKASATSATLELDRLMASLPDFRVQNHLPASGPTQPPVVSSTNEGSPSPPEPTAKGSLDTMLGLLQSDLSRRGVPTQAKGLCGSCNKPIAGQVVTALGRAWHPEHFVCGGCSTALGGSSFFEKDGAPFCPECYFERFSPRCGFCNQPIRHKMVTALGTHWHPEHFCCVSCGEPFGDEGFHEREGRPYCRRDFLQLFAPRCQGCQGPILDNYISALSLLWHPDCFVCRECFAPFSGGSFFEHEGRPLCENHFHARRGSLCPTCGLPVTGRCVSALGRRFHPDHFACTFCLRPLTKGSFQERAGKPYCQPCFLKLFG
notes: Mammalian two-hybrid construct, expressed in DU145 cells
Question: Does B3 bind [3]?
Answer: Result: no binding

B4: PR-LBD (receptor, UniProt P06401 679-933, looked up)
chain: QDIQLIPPLINLLMSIEPDVIYAGHDNTKPDTSSSLLTSLNQLGERQLLSVVKWSKSLPGFRNLHIDDQITLIQYSWMSLMVFGLGWRSYKHVSGQMLYFAPDLILNEQRMKESSFYSLCLTMWQIPQEFVKLQVSQEEFLCMKVLLLLNTIPLEGLRSQTQFEEMRSSYIRELIKAIGLRQKGVVSSSQRFYQLTKLLDNLHDLVKQLHLYCLNTFIQSRALSVEFPEMMSEVIAAQLPKILAGMVKPLLFHKK
notes: domain: LBD; Control in the mammalian two-hybrid assay; the construct is not described
Question: Does B4 bind [4]?
Answer: Result: no binding

B5: ARA70 (other, UniProt Q13772 1-614, looked up)
chain: MNTFQDQSGSSSNREPLLRCSDARRDLELAIGGVLRAEQQIKDNLREVKAQIHSCISRHLECLRSREVWLYEQVDLIYQLKEETLQQQAQQLYSLLGQFNCLTHQLECTQNKDLANQVSVCLERLGSLTLKPEDSTVLLFEADTITLRQTITTFGSLKTIQIPEHLMAHASSANIGPFLEKRGCISMPEQKSASGIVAVPFSEWLLGSKPASGYQAPYIPSTDPQDWLTQKQTLENSQTSSRACNFFNNVGGNLKGLENWLLKSEKSSYQKCNSHSTTSSFSIEMEKVGDQELPDQDEMDLSDWLVTPQESHKLRKPENGSRETSEKFKLLFQSYNVNDWLVKTDSCTNCQGNQPKGVEIENLGNLKCLNDHLEAKKPLSTPSMVTEDWLVQNHQDPCKVEEVCRANEPCTSFAECVCDENCEKEALYKWLLKKEGKDKNGMPVEPKPEPEKHKDSLNMWLCPRKEVIEQTKAPKAMTPSRIADSFQVIKNSPLSEWLIRPPYKEGSPKEVPGTEDRAGKQKFKSPMNTSWCSFNTADWVLPGKKMGNLSQLSSGEDKWLLRKKAQEVLLNSPLQEEHNFPPDHYGLPAVCDLFACMQLKVDKEKWLYRTPLQM
notes: also called AR associated protein ARA70
Question: Does B5 bind [2]?
Answer: Result: no binding

Question: And the “induced CAT activity in mammalian two-hybrid assay” value [5]?
Answer: Its value is 12 fold.

B6: VP16 vector (VP16 activation domain alone) (other)
chain: APPTDVSLGDELHLDGEDVAMAHADALDDFDLDMLGDGDSPGPGFTPHDSAPYGALDMADFEFEQMFTDALGIDEYGG
notes: Control of the mammalian two-hybrid assay; also called pCMX-VP16
Question: Does B6 bind [6]?
Answer: Result: no binding

Question: How did the “CAT activity, mammalian two-hybrid system in DU145 cells” value [7] turn out when B7 was run?
Answer: The value was 3 fold.
